Experimental findings from patent US20220106382A1 are described below.

Where a chain is given by its changes, count along the chain named. Numbers in names are those of the source.

Test [1] concerns the target RLuc8β2AR (β2-adrenergic receptor fused to RLuc8, BRET donor construct). As to the kind of experiment: BRET recruitment assay, RLuc8β2AR and GFP-arrestin-3 mutant in co-transfected cells; the concentration varied is that of isoproterenol. In general terms: BRET reads energy transfer from a luciferase to a nearby fluorophore.
For test [2] the target is unchanged. As to the kind of experiment: BRET recruitment assay in co-transfected cells, isoproterenol-induced.
Test [3] shares this target. The test is described as follows: BRET recruitment assay, RLuc8β2AR and GFP-arrestin-3 mutant in co-transfected cells, isoproterenol-induced.
For test [4] the target is unchanged. The test is described as follows: BRET recruitment assay, RLuc8β2AR and GFP-arrestin-3 in co-transfected cells; the concentration varied is that of isoproterenol.
For test [5] the target is unchanged. As to the kind of experiment: BRET recruitment assay in co-transfected cells; the concentration is that of isoproterenol.

Molecule “GFP-arrestin-3 double mutant A (SEQ ID NO: 2): T299A + I386A” registered a Potency (pEC50 of isoproterenol for recruitment of the arrestin to β2AR) in test [1] of 7.1 pEC50. Moreover, the increase of efficacy in arrestin recruitment compared to wild-type arrestin-3 in test [2] is 30%. In addition, in test [3], the Efficacy (Emax) in %, normalized to WT is 132%.

The molecule “GFP-arrestin-3 WT (human wild-type arrestin-3, SEQ ID NO: 1)” registered a Potency (pEC50 of isoproterenol for recruitment of the arrestin to β2AR) in test [4] of 6.8 pEC50. In test [5], this molecule returned a potency as concentration of isoproterenol for half of the total recruitment of the arrestin to β2AR of 158 nM.

B1: GFP-arrestin-3 triple mutant D (SEQ ID NO: 5): T299A + I386A + R393A (protein)
chain: MGEKPGTRVFKKSSPNCKLTVYLGKRDFVDHLDKVDPVDGVVLVDPDYLKDRKVFVTLTCAFRYGREDLDVLGLSFRKDLFIATYQAFPPVPNPPRPPTRLQDRLLRKLGQHAHPFFFTIPQNLPCSVTLQPGPEDTGKACGVDFEIRAFCAKSLEEKSHKRNSVRLVIRKVQFAPEKPGPQPSAETTRHFLMSDRSLHLEASLDKELYYHGEPLNVNVHVTNNSTKTVKKIKVSVRQYADICLFSTAQYKCPVAQLEQDDQVSPSSTFCKVYTITPLLSDNREKRGLALDGKLKHEDANLASSTIVKEGANKEVLGILVSYRVKVKLVVSRGGDVSVELPFVLMHPKPHDHIPLPRPQSAAPETDVPVDTNLIEFDTNYATDDDAVFEDFAALRLKGMKDDDYDDQLC
Take B1: the Potency (pEC50 of isoproterenol for recruitment of the arrestin to β2AR) in test [1] came out at 7.2 pEC50. In test [3], this molecule came in with an Efficacy (Emax) in %, normalized to WT of 89.2%.

B2: GFP-arrestin-3 triple mutant B (SEQ ID NO: 3): T299A + I386A + R166A (protein)
chain: B1 chain with R166A, A393R
In turn, B2 returned a Potency (pEC50 of isoproterenol for recruitment of the arrestin to β2AR) in test [1] of 7.3 pEC50. The same molecule showed a potency as concentration of isoproterenol for half of the total recruitment of the arrestin to β2AR in test [5] of 50.1 nM. This molecule yielded an Efficacy (Emax) in %, normalized to WT in test [3] of 103%.

B3: GFP-arrestin-3 triple mutant C (SEQ ID NO: 4): T299A + I386A + D298A (protein)
chain: B1 chain with D298A, A393R
Molecule B3 came in with a Potency (pEC50 of isoproterenol for recruitment of the arrestin to β2AR) in test [1] of 7.2 pEC50. Besides, the Efficacy (Emax) in %, normalized to WT in test [3] is 109%.
